Measurements published in article PMC6173736.

Key:
Assay in all cases: SEC; HPLC-SEC on a bioZen 1.8 µm SEC-3 column in 150 mM KPi, pH 6.8; absorbance at 280 nm and 655 nm; samples after clicking with BCN-649, in vitro phosphopantetheinylation and purification over Ni-NTA magnetic beads
[1] = molecular target: full-length mFAS mutant Gly2113AzPhe (mouse) (UniProt P19096)
[2] = molecular target: full-length mFAS mutant Gly2113AzPhe with additional ACP knock-out mutation Ser2150Ala (mouse) (UniProt P19096)
[3] = molecular target: murine fatty acid synthase type I, wild type, full-length (mouse) (UniProt P19096); settings: remark: other sources report otherwise

full-length mFAS mutant Gly2113AzPhe with additional ACP knock-out mutation Ser2150Ala, sequence (P19096 1-2112, change not shown): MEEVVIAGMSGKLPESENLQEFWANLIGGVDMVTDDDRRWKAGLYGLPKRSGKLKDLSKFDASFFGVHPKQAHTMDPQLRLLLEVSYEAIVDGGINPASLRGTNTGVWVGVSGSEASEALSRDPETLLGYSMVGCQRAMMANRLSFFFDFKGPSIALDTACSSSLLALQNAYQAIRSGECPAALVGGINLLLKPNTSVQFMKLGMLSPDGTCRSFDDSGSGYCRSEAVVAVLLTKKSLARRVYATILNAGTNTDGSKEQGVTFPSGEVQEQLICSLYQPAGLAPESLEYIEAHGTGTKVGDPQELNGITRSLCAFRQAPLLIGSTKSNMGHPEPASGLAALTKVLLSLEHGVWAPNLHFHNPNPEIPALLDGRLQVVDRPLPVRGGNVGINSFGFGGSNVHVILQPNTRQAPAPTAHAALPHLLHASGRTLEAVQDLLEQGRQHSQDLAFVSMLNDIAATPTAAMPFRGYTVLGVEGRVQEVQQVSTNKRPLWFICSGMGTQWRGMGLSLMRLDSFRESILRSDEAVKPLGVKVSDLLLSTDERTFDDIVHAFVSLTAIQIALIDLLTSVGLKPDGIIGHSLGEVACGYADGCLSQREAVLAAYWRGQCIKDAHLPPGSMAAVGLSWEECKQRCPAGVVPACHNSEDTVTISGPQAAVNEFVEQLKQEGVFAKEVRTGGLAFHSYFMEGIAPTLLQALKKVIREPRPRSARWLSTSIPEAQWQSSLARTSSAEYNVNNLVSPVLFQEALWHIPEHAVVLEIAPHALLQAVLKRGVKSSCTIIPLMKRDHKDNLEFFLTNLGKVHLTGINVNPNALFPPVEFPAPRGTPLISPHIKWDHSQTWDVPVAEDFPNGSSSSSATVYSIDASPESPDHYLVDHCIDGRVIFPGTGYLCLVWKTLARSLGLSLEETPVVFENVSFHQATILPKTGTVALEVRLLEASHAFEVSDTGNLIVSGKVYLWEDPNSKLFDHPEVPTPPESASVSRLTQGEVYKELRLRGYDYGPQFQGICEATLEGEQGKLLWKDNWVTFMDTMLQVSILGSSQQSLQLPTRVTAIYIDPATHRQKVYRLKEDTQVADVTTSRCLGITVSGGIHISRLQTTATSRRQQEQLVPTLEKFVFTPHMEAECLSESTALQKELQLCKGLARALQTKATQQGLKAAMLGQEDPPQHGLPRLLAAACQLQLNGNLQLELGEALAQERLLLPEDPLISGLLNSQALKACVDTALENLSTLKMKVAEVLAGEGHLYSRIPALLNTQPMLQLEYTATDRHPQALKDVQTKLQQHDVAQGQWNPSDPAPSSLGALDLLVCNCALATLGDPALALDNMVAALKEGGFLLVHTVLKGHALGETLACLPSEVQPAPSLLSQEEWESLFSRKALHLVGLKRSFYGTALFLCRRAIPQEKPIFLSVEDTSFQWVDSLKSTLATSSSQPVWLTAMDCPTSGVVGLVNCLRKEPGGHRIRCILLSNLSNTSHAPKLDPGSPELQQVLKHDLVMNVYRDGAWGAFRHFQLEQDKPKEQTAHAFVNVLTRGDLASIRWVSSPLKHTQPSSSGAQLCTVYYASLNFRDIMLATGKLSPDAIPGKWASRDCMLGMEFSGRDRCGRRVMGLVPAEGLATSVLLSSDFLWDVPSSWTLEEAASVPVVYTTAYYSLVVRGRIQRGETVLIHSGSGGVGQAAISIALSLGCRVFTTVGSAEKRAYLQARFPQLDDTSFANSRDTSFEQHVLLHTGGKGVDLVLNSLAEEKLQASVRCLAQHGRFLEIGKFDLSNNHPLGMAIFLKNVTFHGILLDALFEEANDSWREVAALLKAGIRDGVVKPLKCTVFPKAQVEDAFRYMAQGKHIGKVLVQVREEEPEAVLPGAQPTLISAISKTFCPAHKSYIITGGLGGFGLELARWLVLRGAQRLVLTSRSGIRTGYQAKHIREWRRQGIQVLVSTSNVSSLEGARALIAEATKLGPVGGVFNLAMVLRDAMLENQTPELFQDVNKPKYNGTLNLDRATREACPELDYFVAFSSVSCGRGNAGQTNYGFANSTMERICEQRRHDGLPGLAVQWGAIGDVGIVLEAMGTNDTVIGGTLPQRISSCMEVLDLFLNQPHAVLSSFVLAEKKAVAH

Question: For “full-length mFAS mutant Gly2113AzPhe (from UniProt P19096 1-2504) (enzyme)”, which stoichiometry N [1] is on record?
Answer: The stoichiometry N was 2.

Question: Which stoichiometry N [2] does the source give for “full-length mFAS mutant Gly2113AzPhe with additional ACP knock-out mutation Ser2150Ala (from UniProt P19096 1-2504) (enzyme)” here?
Answer: The stoichiometry N was 2.

Question: How did the stoichiometry N [3] turn out when “murine fatty acid synthase type I, wild type, full-length, P19096 1-2504” was run?
Answer: The stoichiometry N was 2.
